target: T25-ϕC31 gp3 (wild type) fusion protein; assay: bacterial two-hybrid (B2H) β-galactosidase assay; settings: parent: est. 0.14; read off a plot

| Substance | response (ΔOD420/min/ml) |
| --- | --- |
| wild-type ϕC31 integrase fused to T18 (Int-T18 fusion, pEY111) (from UniProt Q9T221) W526R | 0.008 |
| wild-type ϕC31 integrase fused to T18 (Int-T18 fusion, pEY111) (from UniProt Q9T221) I582G | 0.037 |
| wild-type ϕC31 integrase fused to T18 (Int-T18 fusion, pEY111) (from UniProt Q9T221) I420V; I582V | 0.021 |
| wild-type ϕC31 integrase fused to T18 (Int-T18 fusion, pEY111) (from UniProt Q9T221) W526A | 0.023 |
| wild-type ϕC31 integrase fused to T18 (Int-T18 fusion, pEY111) (from UniProt Q9T221) I420A | 0.019 |
| wild-type ϕC31 integrase fused to T18 (Int-T18 fusion, pEY111) (from UniProt Q9T221) I420V | 0.13 |
| wild-type ϕC31 integrase fused to T18 (Int-T18 fusion, pEY111) (from UniProt Q9T221) I582L | 0.15 |
| wild-type ϕC31 integrase fused to T18 (Int-T18 fusion, pEY111) (from UniProt Q9T221) I582V | 0.1 |
| wild-type ϕC31 integrase fused to T18 (Int-T18 fusion, pEY111) (from UniProt Q9T221) I582A | 0.027 |
| wild-type ϕC31 integrase fused to T18 (Int-T18 fusion, pEY111) (from UniProt Q9T221) I420A; I582V | -0.016 |
| wild-type ϕC31 integrase fused to T18 (Int-T18 fusion, pEY111) (from UniProt Q9T221) I420A; I582T | -0.009 |
| wild-type ϕC31 integrase fused to T18 (Int-T18 fusion, pEY111) (from UniProt Q9T221) W526F | 0.21 |
| wild-type ϕC31 integrase fused to T18 (Int-T18 fusion, pEY111) (from UniProt Q9T221) I582T | 0.068 |

Reference: article PMC5814800
